The values below come from article PMC11427689, “Antagonistic nanobodies implicate mechanism of GSDMD pore formation and potential therapeutic application” (Nature Communications, 2024).

B1: VHH_(GSDMD-1)-HA (VHH)
VHH: QVQLVESGGALVQPGGSLRLSCSASGFTFSKYLMSWYRQAPGKERELVATITTAGGNTNYADSVKGRFTISRDNAKNTVYLQMNSLKPEDTAVYYCKASGGTIRTVNETYWGQGTQVTVSS
notes: also called VHH-HA; source: HEK293T, transfected (pCAGGS VHH-HA), in lysate; not shown: HA, C-terminal, kept
B2: VHH_(GSDMD-5)-HA (VHH)
VHH: QVQLVETGGGLVQPGGSLRLSCAASGFVFSINPMNWYRQAPGKERELVAYISMRGSTTNYADSVKGRFIISRDNAKNTLYLQMNSLKPEDTAVYYCNAPSRSVWGQGTQVTVSS
notes: as for B1
B3: VHH_(GSDMD-3)-HA (VHH)
VHH: QVQLVETGGGLVQPGGSLRLSCAASGFTLDIYNMGWFRQAPGKEREGVSCISSRYGTSTYYADSVKGRFTISRDNAKNTVYLQMNNLKPEDTAVYYCATVSWRFTTNQDVCLTPSVSGYWGQGTQVTVSS
notes: as for B1
B4: VHH_(GSDMD-2)-HA (VHH)
VHH: QVQLVESGGGLVQPGGSLRLSCVDSRSWINVYGANWYRQAPGKERELVAALTSGGTTNYADSVKGRFTISRDNAKNTVYLQMRDLKPEDTAVYYCNLERYTGSSVYPWGQGTQVTVSS
notes: as for B1
B5: VHH_(GSDMD-1) with a C-terminal HA tag, expressed in THP-1 cells (VHH)
VHH: QVQLVESGGALVQPGGSLRLSCSASGFTFSKYLMSWYRQAPGKERELVATITTAGGNTNYADSVKGRFTISRDNAKNTVYLQMNSLKPEDTAVYYCKASGGTIRTVNETYWGQGTQVTVSS
notes: Same nanobody as m2 and m11, other vector and host; also called VHH_(GSDMD-1)-HA; source: THP-1, lentiviral transduction, constitutive expression (pEF1α), in lysate; not shown: HA, C-terminal, kept
B6: VHH_(GSDMD-2) with a C-terminal HA tag, expressed in THP-1 cells (VHH)
VHH: QVQLVESGGGLVQPGGSLRLSCVDSRSWINVYGANWYRQAPGKERELVAALTSGGTTNYADSVKGRFTISRDNAKNTVYLQMRDLKPEDTAVYYCNLERYTGSSVYPWGQGTQVTVSS
notes: Same nanobody as m3 and m12, other vector and host; also called VHH_(GSDMD-2)-HA; source: THP-1, lentiviral transduction, constitutive expression (pEF1α), in lysate; not shown: HA, C-terminal, kept
B7: VHH_(GSDMD-1) with C-terminal HA-His6 (VHH)
VHH: QVQLVESGGALVQPGGSLRLSCSASGFTFSKYLMSWYRQAPGKERELVATITTAGGNTNYADSVKGRFTISRDNAKNTVYLQMNSLKPEDTAVYYCKASGGTIRTVNETYWGQGTQVTVSS
notes: pHEN6-based periplasmic expression vector, small scale (HA-His6); also called HA-His-tagged nanobody; source: E. coli WK6, periplasmic extract, purified (Ni-NTA, desalting); not shown: HA, C-terminal, kept; His6, C-terminal, kept
B8: VHH_(GSDMD-5) with C-terminal HA-His6 (VHH)
VHH: QVQLVETGGGLVQPGGSLRLSCAASGFVFSINPMNWYRQAPGKERELVAYISMRGSTTNYADSVKGRFIISRDNAKNTLYLQMNSLKPEDTAVYYCNAPSRSVWGQGTQVTVSS
notes: as for B7
B9: VHH_(GSDMD-6) with C-terminal HA-His6 (VHH)
VHH: QVQLVETGGGLVQPGGSLRLSCTASGFIFSANQMNWVRQAPGKGLEWLSGISTRGDTTSYADSVKGRFTISRDNAKNTLYLQMNSLQPDDTAVYFCARVCIRGPEPKLRCDDWGQGTQVTVSS
notes: as for B7
B10: VHH_(GSDMD-4) with C-terminal HA-His6 (VHH)
VHH: QVQLVESGGGLVQPGGSLRLSCAASGFTLDRHAIAWFRQAPGLEREGVVCTSSSGAITNTADSVKGRFTISRDDAKNTVYLQMNSLKPEDTAIYYCAVRELWTVQPICEPRPRAYAYWGQGTQVTVSS
notes: as for B7
B11: VHH_(GSDMD-3) with C-terminal HA-His6 (VHH)
VHH: QVQLVETGGGLVQPGGSLRLSCAASGFTLDIYNMGWFRQAPGKEREGVSCISSRYGTSTYYADSVKGRFTISRDNAKNTVYLQMNNLKPEDTAVYYCATVSWRFTTNQDVCLTPSVSGYWGQGTQVTVSS
notes: as for B7
B12: VHH_(GSDMD-2) with C-terminal HA-His6 (VHH)
VHH: QVQLVESGGGLVQPGGSLRLSCVDSRSWINVYGANWYRQAPGKERELVAALTSGGTTNYADSVKGRFTISRDNAKNTVYLQMRDLKPEDTAVYYCNLERYTGSSVYPWGQGTQVTVSS
notes: as for B7

One assay deals with T1, human GSDMD-Renilla luciferase fusion (Homo sapiens, UniProt P57764).
T1 construct: human gasdermin D (GSDMD) fused to Renilla luciferase; A GSDMD 4 A fusion was tested as well; also called Renilla-fused bait protein human GSDMD; source: HEK293T, transfected (pcDNA3.1-based vector), in lysate
T1 sequence (P57764 whole entry, the tested form may be a part): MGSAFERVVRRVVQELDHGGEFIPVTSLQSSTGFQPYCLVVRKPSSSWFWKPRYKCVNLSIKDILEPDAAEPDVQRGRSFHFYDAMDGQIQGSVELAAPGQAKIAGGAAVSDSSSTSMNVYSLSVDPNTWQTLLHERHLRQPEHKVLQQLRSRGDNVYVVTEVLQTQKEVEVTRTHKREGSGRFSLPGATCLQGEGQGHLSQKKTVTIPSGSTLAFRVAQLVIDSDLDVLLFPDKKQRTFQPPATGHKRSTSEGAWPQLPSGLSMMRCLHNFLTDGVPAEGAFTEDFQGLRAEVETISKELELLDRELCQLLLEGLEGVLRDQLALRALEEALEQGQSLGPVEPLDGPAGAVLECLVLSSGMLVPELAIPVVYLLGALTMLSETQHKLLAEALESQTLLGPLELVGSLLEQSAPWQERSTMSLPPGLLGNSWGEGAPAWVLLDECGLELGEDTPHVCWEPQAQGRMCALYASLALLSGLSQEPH
Kind of assay: co-IP; LUMIER assay: HEK293T co-transfected with VHH-HA and Renilla luciferase fusions; lysis in 50 mM Hepes-KOH pH 7.9, 150 mM NaCl, 2 mM EDTA, 0.5% Triton X-100, 5% glycerol; VHH-HA captured on anti-HA-coated plates for one hour; luminescence of co-purified Renilla luciferase normalised to lysate. To be noted: partners not purified.
With B1, the binding result is “binds”.
Still for that read-out and setting: the value for B2 was “binds”; that for B3 was “binds”.
The same measure, in the same setting: the value for B4 was “binds”.

The target in the next assay is T2, GSDMD^NT (N-terminal domain of gasdermin D released by caspase cleavage) (Homo sapiens (endogenous, THP-1), UniProt P57764).
T2 construct: also called processed GSDMD^NT; source: endogenous, lysate of PMA-differentiated THP-1 macrophages stimulated with MxiH
T2 sequence (P57764 whole entry, looked up, the tested form may be a part): as the sequence (P57764 whole entry, the tested form may be a part) above
The experiment in a line: non-reducing SDS-PAGE and immunoblot; PMA-differentiated THP-1 macrophages expressing HA-tagged nanobodies, stimulated with MxiH for 1 h; lysates in SDS-PAGE buffer without reducing agent; immunoblot with anti-GSDMD. To be noted: partners not purified.
As for B5, the binding result was “binds”.
For B6, the binding result is listed as “binds”.

The target of the next assay is T3, His-SUMO-GSDMD (Homo sapiens, UniProt P57764).
T3 construct: human gasdermin D (GSDMD), expressed from pET28 as His-SUMO-GSDMD; the recombinant protein is called full-length in the results; it was cleavable with the SUMO protease ULP1; also called gasdermin D; source: E. coli LOBSTR, purified (Ni-NTA, gel filtration); not shown: SUMO, N-terminal, kept
T3 sequence (P57764 whole entry): as the sequence (P57764 whole entry, the tested form may be a part) above
The experiment in a line: ELISA; SUMO-GSDMD or SUMO in PBS immobilised on ELISA plates at 1 μg/mL overnight; HA-tagged nanobodies in 10% FBS/PBS, 10-fold dilution series from 100 nM to 1 pM; detected with anti-HA HRP and TMB. To be noted: both partners purified. For orientation: ELISA stands for enzyme-linked immunosorbent assay.
With B7, the binding result is “binds”.
On the same count and under the same terms, then B8, with “binds”.
For B9, the binding result is on record as “binds”.
The same measure, in the same setting: the value for B10 was “binds”; that for B11 was “binds”.
For B12, the binding result is on record as “binds”.
